For experiment [1], the target named is trypsin-activated Cry1AbMod toxin (Bacillus thuringiensis) (UniProt P0A370).
The target in experiment [2] is Manduca sexta cadherin protein fragment (CR7–CR12) (Manduca sexta). The experiment in a line: ELISA; 1 μg of cadherin fragment coated per well; toxin or protoxin dilutions in PBS, 1 h at 37°C; detected with polyclonal anti-Cry1Ab antibody; Scatchard analysis; apparent Kd. A general note: An ELISA detects its analyte on a solid surface through an enzyme-linked reagent.

The results in this text go back to PMC3969221.

In turn, “trypsin-activated Cry1AbMod toxin (from UniProt P0A370 1-1155) (domain or fragment)” returned an LC50 (50% lethal concentration) against M. sexta neonatal larvae, mortality after 7 days in experiment [1] of 15 ng/cm^2.
As to “Cry1Ab protoxin (from UniProt P0A370 1-1155) (natural protein)”, the Kd in experiment [2] is 6.8 nM.
